Values belong to the binder of their own block, whether it stands above or below them.
B1: P-selectin glycoprotein ligand-1 (PSGL-1) from activated human T-cells (natural protein, human (endogenous in activated T-cells), UniProt Q14242 42-412, looked up)
chain: QATEYEYLDYDFLPETEPPEMLRNSTDTTPLTGPGTPESTTVEPAARRSTGLDAGGAVTELTTELANMGNLSTDSAAMEIQTTQPAATEAQTTQPVPTEAQTTPLAATEAQTTRLTATEAQTTPLAATEAQTTPPAATEAQTTQPTGLEAQTTAPAAMEAQTTAPAAMEAQTTPPAAMEAQTTQTTAMEAQTTAPEATEAQTTQPTATEAQTTPLAAMEALSTEPSATEALSMEPTTKRGLFIPFSVSSVTHKGIPMAASNLSVNYPVGAPDHISVKQCLLAILILALVATIFFVCTVVLAVRLSRKGHMYPVRNYSPTEMVCISSLLPDGGEGPSATANGGLSKAKSPGLTPEPREDREGDDLTLHSFLP
modifications: O-glycans
notes: P-selectin glycoprotein ligand-1 (CD162), human; also called CD162
B3: recombinant mouse E-selectin/CD62E Fc chimera (E-Ig) (Fc fusion, UniProt Q00690 22-557, looked up)
chain: WYYNASSELMTYDEASAYCQRDYTHLVAIQNKEEINYLNSNLKHSPSYYWIGIRKVNNVWIWVGTGKPLTEEAQNWAPGEPNNKQRNEDCVEIYIQRTKDSGMWNDERCNKKKLALCYTASCTNASCSGHGECIETINSYTCKCHPGFLGPNCEQAVTCKPQEHPDYGSLNCSHPFGPFSYNSSCSFGCKRGYLPSSMETTVRCTSSGEWSAPAPACHVVECEALTHPAHGIRKCSSNPGSYPWNTTCTFDCVEGYRRVGAQNLQCTSSGIWDNETPSCKAVTCDAIPQPQNGFVSCSHSTAGELAFKSSCNFTCEQSFTLQGPAQVECSAQGQWTPQIPVCKAVQCEALSAPQQGNMKCLPSASGPFQNGSSCEFSCEEGFELKGSRRLQCGPRGEWDSKKPTCSAVKCDDVPRPQNGVMECAHATTGEFTYKSSCAFQCNEGFSLHGSAQLECTSQGKWTQEVPSCQVVQCPSLDVPGKMNMSCSGTAVFGTVCEFTCPDDWTLNGSAVLTCGATGRWSGMPPTCEAPVSPTRP
notes: E-selectin (CD62E), mouse; Mouse is named only in the flow cytometry methods; also called E-selectin-hIg chimera; recombinant E-selectin–Ig chimera; source: bought: R&D

How the values were obtained:
[1] = molecular target: B3; test: SPR; BIAcore CM5 chip; CD44 and PSGL-1 captured from activated T-cell lysate by immobilised mAbs; 10 E-Ig concentrations (0.456-466.7 nM) injected at 30 ul/min in 150 mM NaCl running buffer; KD from steady-state fit; apparent koff from the buffer wash after the last injection; apparent kon calculated (Eq. 1 in Supplementary Material); isotype control subtracted; conditions: both partners purified
[2] = molecular target: CD44/HCELL from activated human T-cells (human (endogenous in activated T-cells))
[3] = molecular target: B1; test: SPR; BIAcore CM5 chip; CD44 and PSGL-1 captured from activated T-cell lysate by immobilised mAbs; 10 E-Ig concentrations (0.456-466.7 nM) injected at 30 ul/min in 150 mM NaCl running buffer; KD from steady-state fit; apparent koff from the buffer wash after the last injection; apparent kon calculated (Eq. 1 in Supplementary Material); isotype control subtracted; conditions: both partners purified
[4] = molecular target: CD44/HCELL from activated human T-cells (human (endogenous in activated T-cells)); test: as above

Binder: B1
- Kd [1]: 467 nM
- koff [1]: 2.5e-05 s⁻¹
- kon [1]: 52 M⁻¹ s⁻¹

- average velocity of CHO-E cells rolling over the immuno-purified ligand on a blot (blot rolling assay, 0.5 dyn cm^-2, 2 mM Ca2+) [2]: 3.3
B2: E-selectin on CHO cells expressing E-selectin (CHO-E) (receptor)
chain: WSYNTSTEAMTYDEASAYCQQRYTHLVAIQNKEEIEYLNSILSYSPSYYWIGIRKVNNVWVWVGTQKPLTEEAKNWAPGEPNNRQKDEDCVEIYIKREKDVGMWNDERCSKKKLALCYTAACTNTSCSGHGECVETINNYTCKCDPGFSGLKCEQIVNCTALESPEHGSLVCSHPLGNFSYNSSCSISCDRGYLPSSMETMQCMSSGEWSAPIPACNVVECDAVTNPANGFVECFQNPGSFPWNTTCTFDCEEGFELMGAQSLQCTSSGNWDNEKPTCKAVTCRAVRQPQNGSVRCSHSPAGEFTFKSSCNFTCEEGFMLQGPAQVECTTQGQWTQQIPVCEAFQCTALSNPERGYMNCLPSASGSFRYGSSCEFSCEQGFVLKGSKRLQCGPTGEWDNEKPTCEAVRCDAVHQPPKGLVRCAHSPIGEFTYKSSCAFSCEEGFELHGSTQLECTSQGQWTEEVPSCQVVKCSSLAVPGKINMSCSGEPVFGTVCKFACPEGWTLNGSAARTCGATGHWSGLLPTCEAPTESNIPLVAGLSAAGLSLLTLAPFLLWLRKCLRKAKKFVPASSCQSLESDGSYQKPSYIL

Binder: B3
- stoichiometry N [3]: ≥ 2 E-selectin dimers per PSGL-1 dimer
- Kd [4]: 777 nM
- koff [4]: 4.9e-05 s⁻¹
- kon [4]: 61 M⁻¹ s⁻¹

Reference: article PMC5413510, “An Analysis of Trafficking Receptors Shows that CD44 and P-Selectin Glycoprotein Ligand-1 Collectively Control the Migration of Activated Human T-Cells” (Frontiers in Immunology, 2017)
